Experimental data reported in publication PMC3491808 (Journal of biomolecular NMR, 2011).
Non-standard residues stand in square brackets, D forms with d. No end group written: not given here. pT = C[C@@H](OP(=O)(O)O)[C@H](N)C(=O)O

Target: Pin1-PPIase (isolated catalytic PPIase domain of Pin1, residues 46-163) (human, UniProt Q13526 46-163)
Experiment: NMR titration

Chain of Pin1-PPIase (isolated catalytic PPIase domain of Pin1, residues 46-163) (Q13526 46-163): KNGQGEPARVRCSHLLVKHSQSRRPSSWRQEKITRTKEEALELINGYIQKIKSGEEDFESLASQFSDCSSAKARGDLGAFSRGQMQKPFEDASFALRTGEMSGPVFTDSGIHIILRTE

Kd: 1300 µM
Binder: GVVEVDAAV[pT]PEERHLSKMQQNGY (peptide, UniProt P05067-4 659-682, looked up) [pAPP659-682 (24-residue phosphopeptide, residues 659-682 of APP phosphorylated at T668)]
